Test results from patent US20120100141A1 (GlaxoSmithKline, published 2012).

B1: Cynomolgus monkey serum albumin (CSA) (other, UniProt A2V9Z4 25-608, looked up)
chain: DTHKSEVAHRFKDLGEEHFKGLVLVAFSQYLQQCPFEEHVKLVNEVTEFAKTCVADESAENCDKSLHTLFGDKLCTVATLRETYGEMADCCAKQEPERNECFLQHKDDNPNLPPLVRPEVDVMCTAFHDNEATFLKKYLYEVARRHPYFYAPELLFFAARYKAAFAECCQAADKAACLLPKLDELRDEGKASSAKQRLKCASLQKFGDRAFKAWAVARLSQKFPKAEFAEVSKLVTDLTKVHTECCHGDLLECADDRADLAKYMCENQDSISSKLKECCDKPLLEKSHCLAEVENDEMPADLPSLAADYVESKDVCKNYAEAKDVFLGMFLYEYARRHPDYSVMLLLRLAKAYEATLEKCCAAADPHECYAKVFDEFQPLVEEPQNLVKQNCELFEQLGEYKFQNALLVRYTKKVPQVSTPTLVEVSRNLGKVGAKCCKLPEAKRMPCAEDYLSVVLNRLCVLHEKTPVSEKVTKCCTESLVNRRPCFSALELDEAYVPKAFNAETFTFHADMCTLSEKEKQVKKQTALVELVKHKPKATKEQLKGVMDNFAAFVEKCCKADDKEACFAEEGPKFVAASQAALA
notes: CSA is not spelled out where it is used; also called cynomolgus serum albumin; cyno serum albumin
B2: Rat serum albumin (RSA) (other, UniProt P02770 25-608, looked up)
chain: EAHKSEIAHRFKDLGEQHFKGLVLIAFSQYLQKCPYEEHIKLVQEVTDFAKTCVADENAENCDKSIHTLFGDKLCAIPKLRDNYGELADCCAKQEPERNECFLQHKDDNPNLPPFQRPEAEAMCTSFQENPTSFLGHYLHEVARRHPYFYAPELLYYAEKYNEVLTQCCTESDKAACLTPKLDAVKEKALVAAVRQRMKCSSMQRFGERAFKAWAVARMSQRFPNAEFAEITKLATDVTKINKECCHGDLLECADDRAELAKYMCENQATISSKLQACCDKPVLQKSQCLAEIEHDNIPADLPSIAADFVEDKEVCKNYAEAKDVFLGTFLYEYSRRHPDYSVSLLLRLAKKYEATLEKCCAEGDPPACYGTVLAEFQPLVEEPKNLVKTNCELYEKLGEYGFQNAVLVRYTQKAPQVSTPTLVEAARNLGRVGTKCCTLPEAQRLPCVEDYLSAILNRLCVLHEKTPVSEKVTKCCSGSLVERRPCFSALTVDETYVPKEFKAETFTFHSDICTLPDKEKQIKKQTALAELVKHKPKATEDQLKTVMGDFAQFVDKCCKAADKDNCFATEGPNLVARSKEALA
B3: Mouse GLP-1 receptor (receptor, UniProt O35659 22-463, looked up)
chain: GPRPQGTTVSLSETVQKWREYRRQCQRFLTEAPLLATGLFCNRTFDDYACWPDGPPGSFVNVSCPWYLPWASSVLQGHVYRFCTAEGLWLHKDNSSLPWRDLSECEESKRGERNFPEEQLLSLYIIYTVGYALSFSALVIASAILVGFRHLHCTRNYIHLNLFASFILRALSVFIKDAALKWMYSTAAQQHQWDGLLSYQDSLGCRLVFLLMQYCVAANYYWLLVEGVYLYTLLAFSVFSEQRIFKLYLSIGWGVPLLFVIPWGIVKYLYEDEGCWTRNSNMNYWLIIRLPILFAIGVNFLIFIRVICIVVSKLKANLMCKTDIKCRLAKSTLTLIPLLGTHEVIFAFVMDEHARGTLRFIKLFTELSFTSFQGLMVAILYCFVNNEVQMEFRKCWERWRLEHLNIQRDCSMKPLKCPTSSVSSGATVGSSVYAATCQSSYS
notes: whole, on cells
B4: Human GLP-1 receptor (receptor, UniProt P43220 24-463, looked up)
chain: RPQGATVSLWETVQKWREYRRQCQRSLTEDPPPATDLFCNRTFDEYACWPDGEPGSFVNVSCPWYLPWASSVPQGHVYRFCTAEGLWLQKDNSSLPWRDLSECEESKRGERSSPEEQLLFLYIIYTVGYALSFSALVIASAILLGFRHLHCTRNYIHLNLFASFILRALSVFIKDAALKWMYSTAAQQHQWDGLLSYQDSLSCRLVFLLMQYCVAANYYWLLVEGVYLYTLLAFSVLSEQWIFRLYVSIGWGVPLLFVVPWGIVKYLYEDEGCWTRNSNMNYWLIIRLPILFAIGVNFLIFVRVICIVVSKLKANLMCKTDIKCRLAKSTLTLIPLLGTHEVIFAFVMDEHARGTLRFIKLFTELSFTSFQGLMVAILYCFVNNEVQLEFRKSWERWRLEHLHIQRDSSMKPLKCPTSSLSSGATAGSSMYTATCQASCS
notes: whole, on cells
B5: Rat GLP-1 receptor (receptor, UniProt P32301 22-463, looked up)
chain: GPRPQGATVSLSETVQKWREYRHQCQRFLTEAPLLATGLFCNRTFDDYACWPDGPPGSFVNVSCPWYLPWASSVLQGHVYRFCTAEGIWLHKDNSSLPWRDLSECEESKQGERNSPEEQLLSLYIIYTVGYALSFSALVIASAILVSFRHLHCTRNYIHLNLFASFILRALSVFIKDAALKWMYSTAAQQHQWDGLLSYQDSLGCRLVFLLMQYCVAANYYWLLVEGVYLYTLLAFSVFSEQRIFKLYLSIGWGVPLLFVIPWGIVKYLYEDEGCWTRNSNMNYWLIIRLPILFAIGVNFLVFIRVICIVIAKLKANLMCKTDIKCRLAKSTLTLIPLLGTHEVIFAFVMDEHARGTLRFVKLFTELSFTSFQGFMVAVLYCFVNNEVQMEFRKSWERWRLERLNIQRDSSMKPLKCPTSSVSSGATVGSSVYAATCQNSCS
notes: whole, on cells
B6: 2xGLP-1 (7-37) A8G DOM7h-14 dAb fusion (DAT0114) (other)
chain: HGEGTFTSDVSSYLEGQAAKEFIAWLVKGRHGEGTFTSDVSSYLEGQAAKEFIAWLVKGRDIQMTQSPSSLSASVGDRVTITCRASQWIGSQLSWYQQKPGKAPKLLIMWRSSLQSGVPSRFSGSGSGTDFTLTISSLQPEDFATYYCAQGAALPRTFGQGTKVEIKR
notes: expressed in HEK293E cells, purified on protein L; also called 2xGLP-1 (7-37) A8G DOM7h-14 fusion
B7: GLP-1 (7-37) A8G, helical linker, DOM7h-14 dAb fusion (DAT0120) (other)
chain: HGEGTFTSDVSSYLEGQAAKEFIAWLVKGRGKEAAAKEAAAKEAAAKELAAKEAAAKEAAAKEAAAKELAADIQMTQSPSSLSASVGDRVTITCRASQWIGSQLSWYQQKPGKAPKLLIMWRSSLQSGVPSRFSGSGSGTDFTLTISSLQPEDFATYYCAQGAALPRTFGQGTKVEIKR
notes: Single-chain genetic fusion of GLP-1 (7-37) A8G, helical linker and DOM7h-14; also called GLP-1 (7-37) A8G, helical linker, DOM7h-14 fusion; GLP-1 A8G, helical linker, DOM7h-14 fusion

What was measured:
[1] = target: T1, Exendin 4, (G4S)3, linker DOM7h-14-10 fusion (DMS7139); assay: SPR (Biacore), albumin on CM5 chip, fusion in flow
T1 construct: expressed in E. coli with a cleaved OmpT AWA leader; also called DSM7139

[2] = target: T2, Exendin 4, (G4S)3, linker DOM7h-11-15 fusion (DMS7143); assay: SPR (Biacore), albumin on CM5 chip, fusion in flow
T2 construct: expressed in E. coli with a cleaved OmpT AWA leader

[3] = target: T3, Exendin 4 (G4S linker)3 DOM7h-14 dAb fusion (DAT0115); assay: SPR (Biacore), biotinylated albumin on SA chip, fusion in flow
T3 construct: also called Exendin 4 (G4S)3 DOM7h-14 fusion

[4] = target: T1, Exendin 4, (G4S)3, linker DOM7h-14-10 …; assay: melanophore functional GLP-1R bioassay
[5] = target: T3, Exendin 4 (G4S linker)3 DOM7h-14 dAb …; assay: 6CRE-luciferase reporter in CHO cells with human GLP-1R (called GLP-1R binding assay)
[6] = target: T4, Exendin 4-DOM7h-14 dAb fusion (DAT0116); assay: as above
T4 construct: also called Exendin 4 DOM7h-14 fusion

[7] = target: T5, Exendin 4, helical linker, DOM7h-14 dAb fusion (DAT0117); assay: as above
T5 construct: also called Exendin 4, helical linker, DOM7h-14 fusion

[8] = target: Human serum albumin (HSA) (human, UniProt P02768 25-609); assay: SPR (Biacore), albumin on CM5 chip, fusion in flow
Rat serum albumin (RSA) = target: B2; assay: SPR (Biacore), albumin on CM5 chip, fusion in flow
[9] = target: Mouse serum albumin (MSA) (mouse, UniProt P07724 25-608); assay: SPR (Biacore), albumin on CM5 chip, fusion in flow
Mouse serum albumin (MSA), sequence (P07724 25-608 limits assumed): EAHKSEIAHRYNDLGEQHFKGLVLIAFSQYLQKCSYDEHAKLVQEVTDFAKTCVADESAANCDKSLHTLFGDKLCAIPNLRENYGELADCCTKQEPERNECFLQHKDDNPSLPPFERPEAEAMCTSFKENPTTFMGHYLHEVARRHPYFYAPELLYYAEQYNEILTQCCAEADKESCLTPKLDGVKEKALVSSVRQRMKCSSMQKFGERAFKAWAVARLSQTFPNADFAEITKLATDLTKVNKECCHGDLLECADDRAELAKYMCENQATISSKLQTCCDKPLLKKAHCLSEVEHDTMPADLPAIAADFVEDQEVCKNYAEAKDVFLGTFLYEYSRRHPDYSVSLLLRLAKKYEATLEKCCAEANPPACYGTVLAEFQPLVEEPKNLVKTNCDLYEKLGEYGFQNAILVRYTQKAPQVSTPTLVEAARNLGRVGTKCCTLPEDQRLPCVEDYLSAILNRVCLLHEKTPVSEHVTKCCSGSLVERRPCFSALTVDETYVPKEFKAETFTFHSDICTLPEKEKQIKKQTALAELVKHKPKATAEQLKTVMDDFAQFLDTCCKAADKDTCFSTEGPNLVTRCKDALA

B1 was tested, and the Kd [1] was 42.3 nM, the Kd [2] was 38.9 nM and the Kd [3] was 2000 nM.

B2 was tested, and the Kd [1] was 31.5 nM, the Kd [2] was 219 nM and the Kd [3] was 2000 nM.

B3: binds [4].

B4: binds [4]; binds [5]; binds [6]. B4: binds [7].

B5: binds [4].

Work on B6 yielded a Kd [8] of 150 nM, a Kd (Rat serum albumin (RSA)) of 700 nM and a Kd [9] of 130 nM.

Binder B7 has a Kd [8] of 110 nM, a Kd (Rat serum albumin (RSA)) of 800 nM and a Kd [9] of 110 nM.
